The numbers were not newly measured in PMC4448172, which cites them from elsewhere.

This data set addresses KV1.3 (UniProt P22001).
Chain of UniProt P22001 (P22001 whole entry): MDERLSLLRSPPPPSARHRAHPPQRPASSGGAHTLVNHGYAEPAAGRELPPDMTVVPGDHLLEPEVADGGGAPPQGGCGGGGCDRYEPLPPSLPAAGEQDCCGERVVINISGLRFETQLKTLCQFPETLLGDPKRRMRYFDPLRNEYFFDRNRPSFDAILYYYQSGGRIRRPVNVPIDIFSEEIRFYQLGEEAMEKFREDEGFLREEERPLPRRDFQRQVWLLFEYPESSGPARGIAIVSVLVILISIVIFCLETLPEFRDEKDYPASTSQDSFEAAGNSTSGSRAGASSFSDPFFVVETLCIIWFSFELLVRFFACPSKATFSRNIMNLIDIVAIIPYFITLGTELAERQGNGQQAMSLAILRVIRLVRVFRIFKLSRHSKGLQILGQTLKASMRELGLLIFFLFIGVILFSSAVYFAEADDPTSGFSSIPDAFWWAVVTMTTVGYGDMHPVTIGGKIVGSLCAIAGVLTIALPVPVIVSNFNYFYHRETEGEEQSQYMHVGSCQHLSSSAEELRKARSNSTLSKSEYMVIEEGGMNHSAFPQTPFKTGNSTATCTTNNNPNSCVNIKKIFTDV

As usually defined, the Kd is the concentration at which binding is half-saturated. For ShK (from UniProt P29187), the Kd is 0.011 nM.
